The source of these data is patent US20190298770A1 (IOVANCE BIOTHERAPEUTICS, published 2019).

Test [1] has as its target T1, Programmed Death 1 Ligand 1 (PD-L1) (human, UniProt Q9NZQ7 19-290).
T1 construct: also called CD274; B7-H1
As to the kind of experiment: flow cytometry of 293-PD-L1 stained with 10 fold concentrated supernatant of TIL line M1015, Alexa 647 anti-human Fcγ [panel C]. Background: In flow cytometry, cells or beads pass a laser one at a time.

Test [2] addresses T1, Programmed Death 1 Ligand 1 (PD-L1). Description: flow cytometry on EL4 PD-L1 cells, goat anti-human FITC, % of PD-L1 positive cells.

T1 sequence (Q9NZQ7 19-290): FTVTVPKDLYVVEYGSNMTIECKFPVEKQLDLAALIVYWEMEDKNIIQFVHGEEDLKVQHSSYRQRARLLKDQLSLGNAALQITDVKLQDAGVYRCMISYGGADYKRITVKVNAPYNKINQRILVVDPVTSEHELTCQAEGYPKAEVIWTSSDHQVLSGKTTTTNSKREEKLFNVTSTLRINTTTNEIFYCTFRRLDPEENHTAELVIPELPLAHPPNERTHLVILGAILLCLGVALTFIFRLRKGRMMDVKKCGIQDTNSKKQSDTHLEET

With FMC63-scFV-Fc (Fc fusion), the % of cells in the upper left (PDL1 positive) quadrant in test [1] came out at 1.02%.

B1: anti-PD-L1 ScFV clone 38A1 (scFv)
scFv: EVQLVESGGGLVQPGGSLRLSCAASGFTFSNYAMSWVRQAPGKGLEWVSTISGSGGTTYYADSVKGRFTISRDNSKNTLYLQMNSLRVEDTAVYYCAKDWFRSSSPDAFDIWGQGTTVTVSAGGGGSGGGGSGGGGSGAPSYVLTQPPSVSVAPGQTARITCGGNNIGRKIVHWYQQRPGQAPVLVIYYDTDRPAGIPERFSGSNSGNMATLTISTVGAGDEADYYCQVWDTGSDHVVFGGGTKLTVL
notes: also called 38A1-scFV; scFV 38A1
With B1, the binding result in test [2] is recorded as “binds”.

B2: anti-PD-L1 ScFV clone 19H9 (scFv)
scFv: QVQLQESGGGLVKPGGSLRLSCAASGFTFSSYSMNWVRQAPGKGLEWVSGINTAGDTHYPESVKGRFTISRDNARNSLNLQMNSLRAEDTAVYYCVRERVEREYSGYDAFDIWGQGTTVTVSAGGGGSGGGGSGGGGSGAPNFMLTQPHSVSESLGKTVTISCTGSSGSIARKFVQWYQQRPGSSPTTVIYENNQRPSGVSDRFSGSIGSSSNSASLTISGLKTEDEADYYCQSYDSSNVVFGGGTKVTVL
notes: also called 19H9-scFV; scFV 19H9
Take B2: in test [2], the binding result is listed as “binds”.
